Experimental data as given in US20240124553A1 (WASHINGTON UNIVERSITY, published 2024).

Target: T1, Mayaro virus (MAYV) structural proteins on infected cells (Mayaro virus)
T1 construct: whole, on cells
Assay: flow cytometry, surface staining of MAYV-infected Vero cells with serial dilutions, % binding to infected cells

B1: Mxra8-Fc (extracellular domain of mouse Mxra8 fused to mouse IgG2b Fc) (Fc fusion)
chain: SGPSGTAAASSSLVSESVVSLAAGTQAVLRCQSPRMVWTQDRLHDRQRVVHWDLSGGPGSQRRRLVDMYSAGEQRVYEPRDRDRLLLSPSAFHDGNFSLLIRAVDRGDEGVYTCNLHHHYCHLDESLAVRLEVTEDPLLSRAYWDGEKEVLVVAHGAPALMTCINRAHVWTDRHLEEAQQVVHWDRQLPGVSHDRADRLLDLYASGERRAYGPPFLRDRVSVNTNAFARGDFSLRIDELERADEGIYSCHLHHHYCGLHERRVFHLQVTEPAFEPPARASPGNGSGHSSAPSPDPTLTRGHSIINVIVPEDHTHPSGPISTINPCPPCKECHKCPAPNLEGGPSVFIFPPNIKDVLMISLTPKVTCVVVDVSEDDPDVQISWFVNNVEVHTAQTQTHREDYNSTIRVVSTLPIQHQDWMSGKEFKCKVNNKDLPSPIERTISKIKGLVRAPQVYILPPPAEQLSRKDVSLTCLVVGFNPGDISVEWTSNGHTEENYKDTAPVLDSDGSYFIYSKLNMKTSKWEKTDSFSCNVRHEGLKNYYLKKTISRSPGK
notes: also called mMxra8-Fc; mouse Mxra8-Fc
  EC50 (read off the curve): ~3 ng/mL
